Data as given in the nanobody polyreactivity screen of Harvey et al. (2022).

Experiment: yeast display, Sf9 membrane polyspecificity reagent, FACS + sequencing; frameworks hold sequencing errors
How it was run: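 Genes from sorted yeast were amplified by colony PCR, read by MiSeq 2 × 250 sequencing and filtered on CDR length. These cells carried a synthetic nanobody library in Saccharomyces cerevisiae BJ5465 and were sorted by FACS into low and high (top ~1%) gates on anti-HA and streptavidin fluorescence. Polyreactivity is labelled according to the gate of origin.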

Sequence | polyreactivity (PSR sort gate)
QVQLVESGGGLVQAGGSLRLSCAASGRIFYFYAMGWYRQAPGKEREFVATISYTGGSRYYSDSVKGRFTISRDIAKNTVYLQMNSLKPEDTAVYYCAVRGWYPGFRYDYWGQGTQVTVSS | low polyreactivity
QVQLVESGGGLVQAGGSLRLSCAASGRIFYFYAMGWYRQAPGKERELVAGITRSGDSTYADSVKGRFTISRDNAKNTVYLQMNSLKPEDTAVYYCAADFPWSTKSCHPDSGDSWGQGTQVTVSS | low polyreactivity
QVQLVESGGGLVQAGGSLRLSCAASGRIFYFYAMGWYRQAPGKETELVAAISTSGGSTYYADSVKGRFTISRDNEKNTVYLQMNSLKPEYTAVYYCAARFRYYGSEYDYWGQGTQVTVSS | low polyreactivity
QVQLVESGGGLVQAGGSLRLSCAASGRIFYGNAMGWYRQAPGKERELVAAISSGGGSTYYADSVKGRFTISRDNAKNTVYLQMNSLKPEDTAVYYCAADPVHRFPGTGGYWGQGTQVTVSS | low polyreactivity
QVQLVESGGGLVQAGGSLRLSCAASGRIFYGNAMGWYRQAPGKERELVAAISSGTSTNYADSVKGLFTISRDNAKNTVYLQMHCLKPVDTAVYYCAAGSYSLYLYSLYFDFDYWGQGTQVTVSS | low polyreactivity
QVQLVESGGGLVQAGGSLRLSCAASGRIFYGNAMGWYRQAPGKERELVAAISSGTTTNYADSVKGRFTISRDNAKNTVYLQMNSLKPEDTAVYYCAAGSYSRYLYSLYFDFDYWGQGTQVTVSS | low polyreactivity
QVQLVESGGGLVQAGGSLRLSCAASGRIFYGNAMGWYRQAPGKERELVASITSSGSTKYADSVKGRFTISRDNAKNTVYLQMNSLKPEDTAVYYCAASYTKRYDTYAGYDYWGQGTQVTVSS | low polyreactivity
QVQLVESGGGLVQAGGSLRLSCAASGRIFYGNAMGWYRQAPGKESELVASITSSGSTKYADSVKGRFTISRDNAKNTVYLQMYSLKPVDTAVYYCAASSTKRYDTYAGYDYWGQGTQVTVSS | low polyreactivity
QVQLVESGGGLVQAGGSLRLSCAASGRIFYGNAMGWYRQAPGKVRELVAAISSGTSTNYADSVKGRFTISRDNAKNPVYLQMNSLKPEDTAVYYCAAGSYSRYLYSLYFDFDYWGQGTQVTVSS | low polyreactivity
QVQLVESGGGLVQAGGSLRLSCAASGRIFYGNARGWYRQAPGKERELVATISSSGGRTPYADSVKGRFTISRDNAKNTVYLQMNSLKPEDTAVYYCAAQGYWTGYDYWGQGTQVTVSS | high polyreactivity
QVQLVESGGGLVQAGGSLRLSCAASGRIFYGNVMGWYRQAPGKERELVAAITRSGGSTYYADSVKGRFTISRDYAKNTVYLQMNSLKPEDTAVYYSNDALVSRDRSYEYWGQGTQVTVSS | high polyreactivity
QVQLVESGGGLVQAGGSLRLSCAASGRIFYGYAMGWYIQAPGKERELVAAITYIGGTYYADSVKGRFTISRDNAKNTVYLQMNSQKPEDTSVYYCASEPFYNFVYYTYPYWYDYWGQGTQVTVSS | low polyreactivity
QVQLVESGGGLVQAGGSLRLSCAASGRIFYGYAMGWYRQAPGKERELVAAISRGGTRTFYADSVKGRFTISRDNAKNTVYLQMNSLKPEDTAVYYCAADPGPHRYSYDYWGQGTQVTVSS | high polyreactivity
QVQLVESGGGLVQAGGSLRLSCAASGRIFYGYAMGWYRQAPGKERELVAAISSGGITYYADSVKGRFTISRDNAKNTVYLQMNSLKPEDTAVYYCAATVLGDYEYWGQGTQVTVSS | low polyreactivity
QVQLVESGGGLVQAGGSLRLSCAASGRIFYGYAMGWYRQAPGKERELVAASRYSGGSTYADSVKGRFTISRDNAKNTVFLQMNSLKPEVTAVYYCAAGDAPYVAWDQYQDNVFRYDYWGQGTQVTVSS | low polyreactivity
QVQLVESGGGLVQAGGSLRLSCAASGRIFYGYAMGWYSQAPGKEREVVATITGIGGSTYADSVKGRFTISRDHAKNTVYLQMNSLKPEDTAVYYCNAERGVYWGRYPYKYDYWGQGTQVTVSS | low polyreactivity
QVQLVESGGGLVQAGGSLRLSCAASGRIFYGYTMGWYRQAPGKERELVAAISSSGGSTYYADSVKGRFTISRDNAKNTVYLQMNSLIPEDTAVYYCAAYVPYSPYHVEFNYWGQGTQVTVSS | high polyreactivity
QVQLVESGGGLVQAGGSLRLSCAASGRIFYGYTMGWYRQAPGKERELVADISWRGGSTSYADSVKGRFTISRDNAKNTVYLQMNSLKPEDTAVYYCAKRYRPESLYPFYNPYDYWGQGTQVTVSS | low polyreactivity
QVQLVESGGGLVQAGGSLRLSCAASGRIFYGYVMGWYRQAPGKERELVAAITWSGSRTYYADSVKGRFTISRDNAKNTVYLQMNSLKPEDTAVYYCAARIPSDGYYYWGQGTQVTVSS | high polyreactivity
QVQLVESGGGLVQAGGSLRLSCAASGRIFYINAMGWSRQAPGKERELVAAITEGGVSTYYADSVKGRFTISRDNAKNTVYLQMNSLKPEDTAVYYCNTTGGPDGIVIYEYWGQGTQVTVSS | low polyreactivity
QVQLVESGGGLVQAGGSLRLSCAASGRIFYINAMGWYRQAPGKERELVAAITEGGVSTYYADSVKGRFTISRDNAKNTVYLQMNSLKPEDTAVYYCNTTGGPDGIVIYEYWGQGTQVTVSS | low polyreactivity
QVQLVESGGGLVQAGGSLRLSCAASGRIFYINAMGWYRQAPGKERELVASITGSGGRTYYADSVKGRFTISRDNAKNTVYLQMNSLKPEDTAVYYCNADLYVGYLYYLYDYWGQGTQVSVSS | low polyreactivity

Sequence | polyreactivity (PSR sort gate)
QVQLVESGGGLVQAGGSLRLSCAASGRIFYINTMGWYRQAPGKERELVAAISRRGGSTYYADSVKGRFTISRDNAKNTVYLQMNSLKPEDTAVYYCAARDQYGPGYRSESLDSWGQGTQVTVSS | low polyreactivity
QVQLVESGGGLVQAGGSLRLSCAASGRIFYIYAMGWYRQAPGKERELVAAISTGGGGTYYADSVKGRFTISRDNAKNTVYLQMNSLKPEDTAVYYCAVDSKPRYREFDYWGQGTQVTVSS | high polyreactivity
QVQLVESGGGLVQAGGSLRLSCAASGRIFYIYAMGWYRQAPGKERELVATISVSGGRTYYADSVKGRFTISRDNAKNTVYLHMNSLKPEDTAVYYCAKEGRFNIHKWYDYWGQGTQVTVSS | low polyreactivity
QVQLVESGGGLVQAGGSLRLSCAASGRIFYIYTMGWYILAPGKERELVAGITRAGSTNYADSVKGRFTISRDNAKNTVYLQMNSLKPEDTAVYYSNAYIWIYGFDYCGQGTQVTVSS | high polyreactivity
QVQLVESGGGLVQAGGSLRLSCAASGRIFYKNVMGWYRPAPGKERELVATITRRGGRTFYADSVKGRFTISRDNAKNTVYLQMNSLKPEDTAVYFCNVLPQPGKESTGDDYWGQGTQVTVSS | high polyreactivity
QVQLVESGGGLVQAGGSLRLSCAASGRIFYKSAMGWSRQAPGKEREWVAAITTSGGSTYYADSVKGRFTISRDNAKNTVYLQMNSLKPEDTAVYYCAARSAYGTQRLYYWGQGTQVTVSS | high polyreactivity
QVQLVESGGGLVQAGGSLRLSCAASGRIFYKYAMGWYRQAPGKERELVAGITRSGANTYYADSVKGRFTISRDNAKNTVYLQMNSLKPEDTAVYYCAVYIPRGGRSGYWGQGTQVTVSS | high polyreactivity
QVQLVESGGGLVQAGGSLRLSCAASGRIFYLNAMGWYRQAPGKERELVAAMSGSTGSTYYADSVKGRFTISRDNAKNTVYLQMNSLKPEDTAVYYCNAVLSSNTKWRYPGDYWGQGTQVTVSS | low polyreactivity
QVQLVESGGGLVQAGGSLRLSCAASGRIFYLNDMGWYRQAPGKERELVATITSTGGSTYYADSVKGRFTISRDNAKNTVYLQMNSLKPEDTAVYYCAAGGWRAYSYTARYDYWGQGTQVTVSS | low polyreactivity
QVQLVESGGGLVQAGGSLRLSCAASGRIFYLNVMGWYRQAPGKERELVAAITRRDVTTYADSVKGRFTISRDNAKNTVYLQMNSLKPEDTAVYYCNAVYYNRIGFDYWGQVTQVTVSS | low polyreactivity
QVQLVESGGGLVQAGGSLRLSCAASGRIFYLYAMGWYRQAHGKERELVATINTSGGITYYADSVKGRFTISLDNAKNTVYLQLNSLIPEDTAVYYCNADWEWQYFYFRPGGYWGQGTQETVSS | low polyreactivity
QVQLVESGGGLVQAGGSLRLSCAASGRIFYLYAMGWYRQAPGKERELVAAITGGGSTSYADSVKGRFTISRDNAKNTVYLQMNSLKPEDTAVYYCATDRLTYTKYGYWGQGTQVTVSS | low polyreactivity
QVQLVESGGGLVQAGGSLRLSCAASGRIFYNYAMGWYRQAPGKERELVAAITRRAGRTYYADSVKGRFTISRDNSKNTVYLQMNSLKPEDTAVYYCAKDEPGSSRVLYDSWGQGTQVTVSS | low polyreactivity
QVQLVESGGGLVQAGGSLRLSCAASGRIFYNYAMGWYRQAPGKERELVASISNSGGSTYYADSVKGRFTISRDNAKNTVYLQMNSLKPEDTAVYYCARRYYYYTTYRYDYWGQGTQVSVSS | high polyreactivity
QVQLVESGGGLVQAGGSLRLSCAASGRIFYPNAMGWYRQAPGKERELVAAITSGGRTYYADSVKGRFTISRDNAKNTVYLQMNSLKPEDTAVYYCNARYSFWRSGPGYQGVDYWGQGTQVTVSS | high polyreactivity
QVQLVESGGGLVQAGGSLRLSCAASGRIFYPYAMGWYRQAPGKEREFVATITASGGSTYYADSVKGRVTISRDNAKNTVYFQMNSLKPEDTAVYYCAADDPGYYQVEYWGQGTQVTVSS | high polyreactivity
QVQLVESGGGLVQAGGSLRLSCAASGRIFYPYAMGWYRQAPGKERELVAAIRGGDSTNYADSVKGRFTISRDNAKNTVYLQMNSLKPEDTAVYYCAAVLRYVVRPYSYWSGGYDYWGQGTQVTVSS | high polyreactivity
QVQLVESGGGLVQAGGSLRLSCAASGRIFYPYAMGWYRQAPGKERELVAAISARGGSTYYADSVKGRFTISRDNAKNTVYLQMNSLKPEDTAVYYCATYTYRGVAEMDYWGQGTQVTVSS | high polyreactivity
QVQLVESGGGLVQAGGSLRLSCAASGRIFYPYAMGWYRQAPGKERELVASITSGGGTYYADSVKGRFTISRDNAKNTVYLQMNSLKPEDTAVYYCAAKYYTSWIRYDYWGQGTQVTVSS | low polyreactivity
QVQLVESGGGLVQAGGSLRLSCAASGRIFYRNAKGWYRQATGKERALVASITSGGRTNYADSVKGRFTISRDNAKNTVYLQMNSLKPEDTAVYYCAAPPPYSVRTFRFYYWGQGTQVTVSS | high polyreactivity
QVQLVESGGGLVQAGGSLRLSCAASGRIFYRNAMGRYRQAPGKERELVAAISSSGGRTYYADSVKGRFTISRDNAKITVYFQMNSLKPEDTAVYYCNRAYYLDSGYDSWGQGTQVTVSS | high polyreactivity
